From patent US20260176319A1 (KALLYOPE, published 2026)
Starred links: 1 amine or outer side, 2 acyl side, 3 side chain; linkers in the order of their positions; H or OH if unused. Non-standard residues stand in square brackets, D forms with d. Primed or numbered codes have the meaning given here. *: point of attachment. Trp(7-Me) = Cc1cccc2c(C[C@H](N)C(=O)O)c[nH]c12; C20 diacid = O=C(O)CCCCCCCCCCCCCCCCCCC(=O)*; d(γGlu) = O=C(O)[C@@H](CCC(=O)[*:2])N[*:1]; C18 diacid = O=C(O)CCCCCCCCCCCCCCCCC(=O)*; αMeW = C[C@](N)(Cc1c[nH]c2ccccc12)C(=O)O; γGlu = O=C(O)[C@H](CCC(=O)[*:2])N[*:1]; NMeH = CN[C@@H](Cc1c[nH]cn1)C(=O)O; Palmitoyl = CCCCCCCCCCCCCCCC(=O)*; 3Pal = N[C@@H](Cc1cccnc1)C(=O)O; Met(O) = CS(=O)CC[C@H](N)C(=O)O; Nle = CCCC[C@H](N)C(=O)O; PEG5′ = not defined here; AEEA = NCCOCCOCC(=O)O; Aib = CC(C)(N)C(=O)O; βAla = NCCC(=O)O; Sar = CNCC(=O)O

B1: Peptide 19 (peptide)
peptide: Palmitoyl-[d(γGlu)][AEEA][AEEA]GEH[Trp(7-Me)][Aib]V[dA][3Pal]L[Nle][Sar]-NH2
SMILES: CCCCCCCCCCCCCCCC(=O)N[C@H](CCC(=O)NCCOCCOCC(=O)NCCOCCOCC(=O)NCC(=O)N[C@@H](CCC(=O)O)C(=O)N[C@@H](Cc1c[nH]cn1)C(=O)N[C@@H](Cc1c[nH]c2c(C)cccc12)C(=O)NC(C)(C)C(=O)N[C@H](C(=O)N[C@H](C)C(=O)N[C@@H](Cc1cccnc1)C(=O)N[C@@H](CC(C)C)C(=O)N[C@@H](CCCC)C(=O)N(C)CC(N)=O)C(C)C)C(=O)O
B2: Peptide 1 (peptide)
peptide: Palmitoyl-[d(γGlu)][AEEA][AEEA]GNHWAV[Aib]HL[Nle]-NH2
SMILES: CCCCCCCCCCCCCCCC(=O)N[C@H](CCC(=O)NCCOCCOCC(=O)NCCOCCOCC(=O)NCC(=O)N[C@@H](CC(N)=O)C(=O)N[C@@H](Cc1c[nH]cn1)C(=O)N[C@@H](Cc1c[nH]c2ccccc12)C(=O)N[C@@H](C)C(=O)N[C@H](C(=O)NC(C)(C)C(=O)N[C@@H](Cc1c[nH]cn1)C(=O)N[C@@H](CC(C)C)C(=O)N[C@@H](CCCC)C(N)=O)C(C)C)C(=O)O
B3: Peptide 17 (peptide)
peptide: Palmitoyl-[d(γGlu)][AEEA][AEEA]GNHWAV[dA][3Pal]L[Nle]-NH2
SMILES: CCCCCCCCCCCCCCCC(=O)N[C@H](CCC(=O)NCCOCCOCC(=O)NCCOCCOCC(=O)NCC(=O)N[C@@H](CC(N)=O)C(=O)N[C@@H](Cc1c[nH]cn1)C(=O)N[C@@H](Cc1c[nH]c2ccccc12)C(=O)N[C@@H](C)C(=O)N[C@H](C(=O)N[C@H](C)C(=O)N[C@@H](Cc1cccnc1)C(=O)N[C@@H](CC(C)C)C(=O)N[C@@H](CCCC)C(N)=O)C(C)C)C(=O)O
B4: Peptide 22 (peptide)
peptide: Palmitoyl-[d(γGlu)][AEEA][AEEA]GNH[Trp(7-Me)]AV[Aib]HL[Nle]-NH2
SMILES: CCCCCCCCCCCCCCCC(=O)N[C@H](CCC(=O)NCCOCCOCC(=O)NCCOCCOCC(=O)NCC(=O)N[C@@H](CC(N)=O)C(=O)N[C@@H](Cc1c[nH]cn1)C(=O)N[C@@H](Cc1c[nH]c2c(C)cccc12)C(=O)N[C@@H](C)C(=O)N[C@H](C(=O)NC(C)(C)C(=O)N[C@@H](Cc1c[nH]cn1)C(=O)N[C@@H](CC(C)C)C(=O)N[C@@H](CCCC)C(N)=O)C(C)C)C(=O)O
B5: Peptide 2 (peptide)
peptide: Palmitoyl-[d(γGlu)][AEEA][AEEA]GNHWAV[Aib][3Pal]L[Nle]-NH2
SMILES: CCCCCCCCCCCCCCCC(=O)N[C@H](CCC(=O)NCCOCCOCC(=O)NCCOCCOCC(=O)NCC(=O)N[C@@H](CC(N)=O)C(=O)N[C@@H](Cc1c[nH]cn1)C(=O)N[C@@H](Cc1c[nH]c2ccccc12)C(=O)N[C@@H](C)C(=O)N[C@H](C(=O)NC(C)(C)C(=O)N[C@@H](Cc1cccnc1)C(=O)N[C@@H](CC(C)C)C(=O)N[C@@H](CCCC)C(N)=O)C(C)C)C(=O)O
B6: Peptide 46 (peptide)
peptide: {C18 diacid}-[dE][AEEA][AEEA]GNH[Trp(7-Me)]AV[dA]HL[Nle]-NH2
SMILES: CCCC[C@H](NC(=O)[C@H](CC(C)C)NC(=O)[C@H](Cc1c[nH]cn1)NC(=O)[C@@H](C)NC(=O)[C@@H](NC(=O)[C@H](C)NC(=O)[C@H](Cc1c[nH]c2c(C)cccc12)NC(=O)[C@H](Cc1c[nH]cn1)NC(=O)[C@H](CC(N)=O)NC(=O)CNC(=O)COCCOCCNC(=O)COCCOCCNC(=O)[C@@H](CCC(=O)O)NC(=O)CCCCCCCCCCCCCCCCC(=O)O)C(C)C)C(N)=O
B7: Peptide 25 (peptide)
peptide: GNHWAVXHLX
modifications: not fully specified; Ac-Gly-Asn-His-Trp-Ala-Val-D-Ala-His-Leu-Nle-H2N(CH2)3NH2-OEG-OEG-(α-Palmitoyl-D-γGlu)
B8: Peptide 21 (peptide)
peptide: Palmitoyl-[d(γGlu)]GNHWAV[Aib]HL[Nle]-NH2
SMILES: CCCCCCCCCCCCCCCC(=O)N[C@H](CCC(=O)NCC(=O)N[C@@H](CC(N)=O)C(=O)N[C@@H](Cc1c[nH]cn1)C(=O)N[C@@H](Cc1c[nH]c2ccccc12)C(=O)N[C@@H](C)C(=O)N[C@H](C(=O)NC(C)(C)C(=O)N[C@@H](Cc1c[nH]cn1)C(=O)N[C@@H](CC(C)C)C(=O)N[C@@H](CCCC)C(N)=O)C(C)C)C(=O)O
B9: Peptide 24 (peptide)
peptide: Palmitoyl-[d(γGlu)][AEEA][AEEA]GEHWAV[Aib]HL[Nle]-NH2
SMILES: CCCCCCCCCCCCCCCC(=O)N[C@H](CCC(=O)NCCOCCOCC(=O)NCCOCCOCC(=O)NCC(=O)N[C@@H](CCC(=O)O)C(=O)N[C@@H](Cc1c[nH]cn1)C(=O)N[C@@H](Cc1c[nH]c2ccccc12)C(=O)N[C@@H](C)C(=O)N[C@H](C(=O)NC(C)(C)C(=O)N[C@@H](Cc1c[nH]cn1)C(=O)N[C@@H](CC(C)C)C(=O)N[C@@H](CCCC)C(N)=O)C(C)C)C(=O)O
B10: Peptide 18 (peptide)
peptide: Palmitoyl-[d(γGlu)][AEEA][AEEA]GE[3Pal][Trp(7-Me)][Aib]V[dA][3Pal]L[Nle][Sar]-NH2
SMILES: CCCCCCCCCCCCCCCC(=O)N[C@H](CCC(=O)NCCOCCOCC(=O)NCCOCCOCC(=O)NCC(=O)N[C@@H](CCC(=O)O)C(=O)N[C@@H](Cc1cccnc1)C(=O)N[C@@H](Cc1c[nH]c2c(C)cccc12)C(=O)NC(C)(C)C(=O)N[C@H](C(=O)N[C@H](C)C(=O)N[C@@H](Cc1cccnc1)C(=O)N[C@@H](CC(C)C)C(=O)N[C@@H](CCCC)C(=O)N(C)CC(N)=O)C(C)C)C(=O)O
B11: Peptide 276 (peptide)
peptide: {C20 diacid}-[γGlu][AEEA][AEEA]GQHWAV[βAla]HL[Met(O)]-NH2
SMILES: CC(C)C[C@H](NC(=O)[C@H](Cc1c[nH]cn1)NC(=O)CCNC(=O)[C@@H](NC(=O)[C@H](C)NC(=O)[C@H](Cc1c[nH]c2ccccc12)NC(=O)[C@H](Cc1c[nH]cn1)NC(=O)[C@H](CCC(N)=O)NC(=O)CNC(=O)COCCOCCNC(=O)COCCOCCNC(=O)CC[C@H](NC(=O)CCCCCCCCCCCCCCCCCCC(=O)O)C(=O)O)C(C)C)C(=O)N[C@@H](CCS(C)=O)C(N)=O
B12: Peptide 20 (peptide)
peptide: Palmitoyl-[d(γGlu)][AEEA][AEEA]GNH[Trp(7-Me)][Aib]V[dA][3Pal]L[Nle][Sar]-NH2
SMILES: CCCCCCCCCCCCCCCC(=O)N[C@H](CCC(=O)NCCOCCOCC(=O)NCCOCCOCC(=O)NCC(=O)N[C@@H](CC(N)=O)C(=O)N[C@@H](Cc1c[nH]cn1)C(=O)N[C@@H](Cc1c[nH]c2c(C)cccc12)C(=O)NC(C)(C)C(=O)N[C@H](C(=O)N[C@H](C)C(=O)N[C@@H](Cc1cccnc1)C(=O)N[C@@H](CC(C)C)C(=O)N[C@@H](CCCC)C(=O)N(C)CC(N)=O)C(C)C)C(=O)O
B13: Peptide 26 (peptide)
peptide: Palmitoyl-[d(γGlu)]GNHWAV[dA]HL[Nle]-NH2
SMILES: CCCCCCCCCCCCCCCC(=O)N[C@H](CCC(=O)NCC(=O)N[C@@H](CC(N)=O)C(=O)N[C@@H](Cc1c[nH]cn1)C(=O)N[C@@H](Cc1c[nH]c2ccccc12)C(=O)N[C@@H](C)C(=O)N[C@H](C(=O)N[C@H](C)C(=O)N[C@@H](Cc1c[nH]cn1)C(=O)N[C@@H](CC(C)C)C(=O)N[C@@H](CCCC)C(N)=O)C(C)C)C(=O)O
B14: Peptide 23 (peptide)
peptide: Palmitoyl-[d(γGlu)][AEEA][AEEA]GNH[Trp(7-Me)]AV[Aib][3Pal]L[Nle][Sar]-NH2
SMILES: CCCCCCCCCCCCCCCC(=O)N[C@H](CCC(=O)NCCOCCOCC(=O)NCCOCCOCC(=O)NCC(=O)N[C@@H](CC(N)=O)C(=O)N[C@@H](Cc1c[nH]cn1)C(=O)N[C@@H](Cc1c[nH]c2c(C)cccc12)C(=O)N[C@@H](C)C(=O)N[C@H](C(=O)NC(C)(C)C(=O)N[C@@H](Cc1cccnc1)C(=O)N[C@@H](CC(C)C)C(=O)N[C@@H](CCCC)C(=O)N(C)CC(N)=O)C(C)C)C(=O)O
B15: Peptide 47 (peptide)
peptide: {C18 diacid}-[d(γGlu)][AEEA][AEEA]GNHWAV[dA]HL[Nle][Sar]-NH2
SMILES: CCCC[C@H](NC(=O)[C@H](CC(C)C)NC(=O)[C@H](Cc1c[nH]cn1)NC(=O)[C@@H](C)NC(=O)[C@@H](NC(=O)[C@H](C)NC(=O)[C@H](Cc1c[nH]c2ccccc12)NC(=O)[C@H](Cc1c[nH]cn1)NC(=O)[C@H](CC(N)=O)NC(=O)CNC(=O)COCCOCCNC(=O)COCCOCCNC(=O)CC[C@@H](NC(=O)CCCCCCCCCCCCCCCCC(=O)O)C(=O)O)C(C)C)C(=O)N(C)CC(N)=O
B16: Peptide 274 (peptide)
peptide: {C20 diacid}-[γGlu][γGlu][AEEA][AEEA]GNH[αMeW]AV[βAla]HL[Nle]-NH2
SMILES: CCCC[C@H](NC(=O)[C@H](CC(C)C)NC(=O)[C@H](Cc1c[nH]cn1)NC(=O)CCNC(=O)[C@@H](NC(=O)[C@H](C)NC(=O)[C@](C)(Cc1c[nH]c2ccccc12)NC(=O)[C@H](Cc1c[nH]cn1)NC(=O)[C@H](CC(N)=O)NC(=O)CNC(=O)COCCOCCNC(=O)COCCOCCNC(=O)CC[C@H](NC(=O)CC[C@H](NC(=O)CCCCCCCCCCCCCCCCCCC(=O)O)C(=O)O)C(=O)O)C(C)C)C(N)=O

What follows are binders tested against human GRP receptor (human, UniProt P30550 1-384) (assay: cell-based or functional assay).
human GRP receptor, sequence (P30550 whole entry): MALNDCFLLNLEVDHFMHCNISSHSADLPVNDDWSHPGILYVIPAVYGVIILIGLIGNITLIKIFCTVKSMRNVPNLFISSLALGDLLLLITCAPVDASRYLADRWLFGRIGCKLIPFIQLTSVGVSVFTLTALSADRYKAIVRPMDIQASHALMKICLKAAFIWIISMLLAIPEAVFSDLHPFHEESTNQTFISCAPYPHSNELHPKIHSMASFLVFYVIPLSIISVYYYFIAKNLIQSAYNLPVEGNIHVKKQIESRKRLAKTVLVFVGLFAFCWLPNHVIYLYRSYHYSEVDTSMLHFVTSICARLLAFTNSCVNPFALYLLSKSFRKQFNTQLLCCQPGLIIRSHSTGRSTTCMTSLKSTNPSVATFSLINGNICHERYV
With B1 the “hIP1 GRPR EC50” value was over 1000 nM.
In the case of B2, the “hIP1 GRPR EC50” value is reported as 6.9 nM.
{C20 diacid}-[γGlu][γGlu][AEEA][AEEA]GDH[Trp(7-Me)]AV[BABA][NMeH]L[Nle]-NH2 [Peptide 278] was tested, and the “hIP1 GRPR EC50” value was 10.8 nM.
With B3 the “hIP1 GRPR EC50” value was 3 nM.
In the case of B4, the “hIP1 GRPR EC50” value is reported as 10.3 nM.
In the case of B5, the “hIP1 GRPR EC50” value is reported as 822 nM.
In the case of B6, the “hIP1 GRPR EC50” value is reported as 9.9 nM.
B7 was tested, and the “hIP1 GRPR EC50” value was 10000 nM.
B8 was tested, and the “hIP1 GRPR EC50” value was 120 nM.
For B9, the “hIP1 GRPR EC50” value was 183 nM.
In the case of B10, the “hIP1 GRPR EC50” value is reported as about 1000 nM.
With B11 the “hIP1 GRPR EC50” value was 63.8 nM.
In the case of B12, the “hIP1 GRPR EC50” value is reported as over 1000 nM.
In the case of {C20 diacid}-[γGlu][γGlu][AEEA][AEEA]SEH[Trp(7-Me)]AV[BABA][NMeH]L[Nle]-NH2 [Peptide 277], the “hIP1 GRPR EC50” value is reported as 13.1 nM.
For B13, the “hIP1 GRPR EC50” value was 1.8 nM.
For B14, the “hIP1 GRPR EC50” value was 1090 nM.
With B15 the “hIP1 GRPR EC50” value was 216 nM.
With B16 the “hIP1 GRPR EC50” value was 4.9 nM.
With {C20 diacid}-[γGlu][γGlu][PEG5′]GEH[Trp(7-Me)]AV[BABA]HL[Nle]-NH2 [Peptide 275] the “hIP1 GRPR EC50” value was 12.3 nM.
